Data reported in patent publication US20110318360A1.

B1: mAb 11.31 (PGN 632) (antibody, V domains shown)
VH: QVQLQESGPGLVKPSGTLSLTCAVSGGSISSSNWWSWVRQPPGKGLEWIGEIYHSGSTNYNPSLKSRVTISVDKSKNQFSLKLSSVTAADTAVYYCARSRFRSWLVKRRYVYFDYWGQGTLVTVSS
VL: SSELSQDPAVSVALGQTVRITCQGDSLRSYYASWYQQKPGQAPVLVIYGKNNRPSGIPDRFSGSSSGNTASLTITGAQAEDEADYYCNSRDSSGNVVFGGGTKVTVL

Experiments:
[1] = target: HIV-1 B.6535 Env (HIV-1)
[2] = target: HIV-1 B.PVO Env (HIV-1)
[3] = target: HIV-1 C.DU123 Env (HIV-1)
[4] = target: HIV-1 B.AD8 Env on Aldrithiol-2 inactivated virions (HIV-1)
[5] = target: HIV-1 B.ADA Env on Aldrithiol-2 inactivated virions (HIV-1)
[6] = target: HIV-1 B.MN Env on Aldrithiol-2 inactivated virions (HIV-1)
[7] = target: Env of HIV-BaL.LucR.T2A.ecto/hPBMC (HIV-1)

Molecule	IC50, neutralization of HIV-1 Env pseudovirus in TZM-bl cells [1] [µg/mL]	IC50, neutralization of HIV-1 Env pseudovirus in TZM-bl cells [2] [µg/mL]	IC50, neutralization of HIV-1 Env pseudovirus in TZM-bl cells [3] [µg/mL]	IC90, inhibition of fusion (syncytia) induced by Aldrithiol-2 inactivated HIV-1 in SUP-T1 cells [4] [µg/mL]	IC90, inhibition of fusion (syncytia) induced by Aldrithiol-2 inactivated HIV-1 in SUP-T1 cells [5] [µg/mL]	IC90, inhibition of fusion (syncytia) induced by Aldrithiol-2 inactivated HIV-1 in SUP-T1 cells [6] [µg/mL]	mean IC80, inhibition of HIV-1 infection of PBMC from 75 donors [7] [µg/mL]
4E10 (antibody)	< 2	2.2	< 2	10	< 1.2	< 1.2	20.4
2F5 (antibody)				3.4	< 1.2	< 1.2	
IgG1b12 (antibody)							9.2
Bavituximab (antibody)	> 50	> 50	> 50				
B1	> 50	> 50	> 50				
